The source of these data is article PMC4201348 (ACS Chemical Biology, 2014).

The assay addresses soluble, recombinant SUDV GP (Boniface variant), residues 33-649 (Sudan ebolavirus (Boniface variant), UniProt Q66814).

B1: 31C7 (antibody, V domains shown)
VH: EVQLVESGGGLVQPGGSLRLSCAASGFAFNYYDMFWVRQAPGKGLEWVAYINPGGGNTYYADSVKGRFTISADTSKNTAYLQMNSLRAEDTAVYYCARQLYGNSFLDYWGQGTLVTV
VL: DIQMTQSPSSLSASVGDRVTITCKASQDVTTAVAWYQQKPGKAPKLLIYWASSRYPGVPSRFSGSGSGTDFTLTISSLQPEDFATYYCQQHYSTPLTFGQGTKVEI
B1: the binding result was “binds”.

B2: 35B5 (antibody, V domains shown)
VH: EVQLVESGGGLVQPGGSLRLSCAASGFAFNYYDMFWVRQAPGKGLEWVAYINSGGGNTYYPDSVKGRFTISADTSKNTAYLQMNSLRAEDTAVYYCARQLYGNSFFDYWGQGTLVTV
VL: DIQMTQSPSSLSASVGDRVTITCKASQDVTTAVAWYQQKPGKAPKLLIYWASTRHTGVPSRFSGSGSGTDFTLTISSLQPEDFATYYCQQHYSTPLTFGQGTKVEI
As for B2, the binding result is “binds”.

B3: 34F5 (antibody, V domains shown)
VH: EVQLVESGGGLVQPGGSLRLSCAASGFAFNYYDMFWVRQAPGKGLEWVAYINSGGGNTYYPDSVKGRFTISADTSKNTAYLQMNSLRAEDTAVYYCARQLYGNSFFDYWGQGTLVTV
VL: DIQMTQSPSSLSASVGDRVTITCKASQDVTTAVAWYQQKPGKAPKLLIYWASARHRGVPSRFSGSGSGTDFTLTISSLQPEDFATYYCQQHYSTPLTFGQGTKVEI
Consider B3, for which the binding result is given as “binds”.

B4: 51B6 (antibody, V domains shown)
VH: EVQLVESGGGLVQPGGSLRLSCAASGFAFNYYDLYWVRQAPGKGLEWVAYINPGGGNTYYPDSVKGRFTISADTSKNTAYLQMNSLRAEDTAVYYCARQLYGNSFFDYWGQGTLVTV
VL: DIQMTQSPSSLSASVGDRVTITCKASQDVTTAVAWYQQKPGKAPKLLIYWASTRHTGVPSRFSGSGSGTDFTLTISSLQPEDFATYYCQQHYSTPLTFGQGTKVEI
On to B4, for which the binding result is “binds”.
